Experimental findings from US10434074B2, “Peptide and small molecule agonists of EPHA and uses thereof” (CASE WESTERN RESERVE UNIVERSITY, priority 2004, dated 2019) are described below.

In one experiment the test system is Akt. The experiment in a line: Akt activities in PC-3 cells. It is filed as cell-based, human.
Another experiment deals with GFP-PC-3 cells. The experiment can be described thus: PC3 xenograft growth in nude mice. Details: s.c. tumor growth: dose or concentration left out as unconfirmed. The class given is in vivo. The text has this: Frozen sections were stained with biotinylated rabbit anti-human Fc, and HRP-conjugated streptoavidin.
The subject of the next experiment is DU-145 cells. The experiment can be described thus: Modified Boyden chamber cell migration assay. The class given is cell-based, human. How it is done: FIGS. 2(A-E) illustrate EphA activation inhibited DU-145 cell migration. (A) Expression of c-Met is elevated in cell lines derived from more malignant prostate cancer. Total cellular proteins were immunoblotted with anti-human c-Met. An anti-tubulin blot was used as a control for protein loading. (B) In a modified Boyden chamber assay, DU-145 cells were placed in the upper chamber and allowed to migrate to the lower chamber containing indicated reagents. After 8 hours, cells were stained with crystal violet and cells remaining in the upper chamber were removed. Top panel: Cells migrated to the undersides of membrane were counted; six high power fields were counted. Results represent means±S.D. Representative fields were shown in the lower panel. (C) Ephrin-A1-Fc inhibits DU-145 cell migration when HGF/SF was uniformly presented in both sides of membranes. The experiment was carried out as described in A. (D) Inhibition of cell scattering by immobilized ephrin-A1 in a SOIL assay (Method). Ephrin-A1-Fc or control Fc was immobilized on 6-well culture dishes. Freshly confluent DU-145 cells on cover slips were transferred to the coated surfaces. Cells were stimulated with HGF/SF to induce migration off the cover slips to immobilized Fc or ephrin-A1-Fc. After 48 hours, cells were fixed and stained with crystal violet. The cells that had migrated to the coated surface were photographed after removing cover slips. (E) DU-145 cells were grown to confluency and a wound was generated by scratching monolayer with a 200 μl pipette tip. The wound healing was recorded prior to and 12 hours after the addition of Fc, ephrin-A1-Fc (1 μg/ml) and/or HGF/SF (20 ng/ml). Representative results from 3 independent experiments are shown.
Modified Boyden chambers of 8 μm pore size (Costar) were used for migration assay. Both sides of the membranes were coated with 10 μg/ml collagen at 4° C. overnight. […] Cells migrated to the underside of the membrane were counted under 200× magnification.

The test system of the next experiment is primary keratinocytes. The experiment in a line: Clonal growth of primary keratinocytes. It is filed as cell-based, mouse. How it is done: FIGS. 43(A-C) illustrate EphA2 kinase is required for ephrin-A1-induced inhibition of ERK1/2 MAP kinase and growth suppression in primary keratinocytes. A) EphA kinase activation by ephrin-A1 in EphA2^+/+ and EphA2^+/− but not EphA2^−/− keratinocytes. Keratinocytes were isolated from newborn (P1) mice and cultured on matrigel-coated culture plates. They were stimulated with 1.0 μg/ml of ephrin-A1-Fc for 10 min. The unstimulated cells were used as control. EphA receptors including EphA2 were precipitated from the cell lysates using ephrin-A1-Fc, and were subjected to immunoblot analysis with rabbit polyclonal anti-phospho-EphA/B antibody. Membrane was stripped and blotted again for total EphA2. B) Ephrin-A1 stimulation leads to inactivation of ERK1/2 MAPK in EphA2^+/+ and EphA2^+/− but not EphA2^−/− keratinocytes. Total cell lysates were analyzed by immunoblot with the indicated antibodies. The band densities from p-ERK blot were normalized to the corresponding total ERK1 blot. The ratios of p-ERK between ephrin-A1-treated and untreated were shown in the lower panel. C). Ephrin-A1 stimulation inhibits clonal growth of EphA2^+/+ and EphA2^+/− but not EphA2^−/− keratinocytes. Primary keratinocytes were plated on 6-well plates coated with matrigel at 5,000 cells/well, and allowed to grow for 12 days in the presence of Fc (0.5 μg/ml) or ephrin-A1-Fc (1.0 μg/ml).

B1: ephrin-A1-Fc: ephrin-A1 dimerized by fusion to the heavy chain of human IgG1 (protein)
chain: DRHTVFWNSSNPKFRNEDYTIHVQLNDYVDIICPHYEDHSVADAAMEQYILYLVEHEEYQLCQPQSKDQVRWQCNRPSAKHGPEKLSEKFQRFTPFTLGKEFKEGHSYYYISKPIHQHEDRCLRLKVTVSGKITHSPQAHDNPQEKRLAADDPEVRVLHSIGHS
modifications: left off: a dimerising Fc or GST
notes: ephrin-A1 dimerized by fusion to the heavy chain of human IgG1
B1: the Akt activities entry in the experiment with Akt is listed as “inhibition of Akt activities”. Further, the targeting to tumors result in the experiment on GFP-PC-3 cells (frozen sections stained with anti-human Fc) is given as “target to GFP-PC-3 tumors”. Also, the “tumor growth after three weeks of treatment” value in the experiment on GFP-PC-3 cells (i.p.) is listed as “lack of effects after three weeks of treatment”. The s.c. tumor growth result in the experiment on GFP-PC-3 cells (i.p., vs human IgG) is “inhibited s.c. tumor growth”. Also, the “cell migration with HGF/SF on both sides” value with DU-145 cells (HGF/SF both sides, ligand in lower chamber only) is on record as “significantly reduced the number of cells migrated”. Besides, in the experiment on DU-145 cells (HGF/SF in lower chamber), the HGF/SF-stimulated cell migration result is on record as “potently inhibited”. In addition, in the experiment on DU-145 cells (lower chamber, 1 μg/ml, 8 hours, vs Fc), the basal cell migration entry is given as “reduced the basal level of cell migration”. The clonal growth result is “resistant to ephrin-A1-induced growth inhibition” in the experiment on primary keratinocytes (EphA2 knockout keratinocytes); “suppressed the growth of wild type and heterozygous keratinocytes” with primary keratinocytes (wild type and heterozygous, 1.0 μg/ml, 12 days).
